# Results taken from patent US20140271701A1.
# Target: serum antibodies (IgG) of Sardinian T1D patients, Example 1 (n=34; Ab+ sera) (human)
# Experiment: competition ELISA on MAP3865c125-133-coated plates, sera pre-adsorbed with saturating peptide
binder,measurement,value
MIIVSSCAV [ZnT8178-186 peptide (…)],percent inhibition,57 to 89%
